These results are taken from publication PMC3136212.

The target in this data set is RPA (full-length heterotrimer RPA1/RPA2/RPA3) (human) (UniProt P27694+P15927+P35244). The data set can be described thus: FP. Also noted: unit not given here. To be noted: 18-carbon spacer (sp18) at 5' end; FP: 0.060 uM FAM-oligo, 10-1500 mM NaCl, room temperature; CD: Buffer A 25 mM Tris pH 7.5, 2 mM MgCl2, 6% glycerol, 1 mM DTT, 100 (or 10) mM ….
RPA (full-length heterotrimer RPA1/RPA2/RPA3) (human), sequence (P27694 whole entry, chain 1 of 3): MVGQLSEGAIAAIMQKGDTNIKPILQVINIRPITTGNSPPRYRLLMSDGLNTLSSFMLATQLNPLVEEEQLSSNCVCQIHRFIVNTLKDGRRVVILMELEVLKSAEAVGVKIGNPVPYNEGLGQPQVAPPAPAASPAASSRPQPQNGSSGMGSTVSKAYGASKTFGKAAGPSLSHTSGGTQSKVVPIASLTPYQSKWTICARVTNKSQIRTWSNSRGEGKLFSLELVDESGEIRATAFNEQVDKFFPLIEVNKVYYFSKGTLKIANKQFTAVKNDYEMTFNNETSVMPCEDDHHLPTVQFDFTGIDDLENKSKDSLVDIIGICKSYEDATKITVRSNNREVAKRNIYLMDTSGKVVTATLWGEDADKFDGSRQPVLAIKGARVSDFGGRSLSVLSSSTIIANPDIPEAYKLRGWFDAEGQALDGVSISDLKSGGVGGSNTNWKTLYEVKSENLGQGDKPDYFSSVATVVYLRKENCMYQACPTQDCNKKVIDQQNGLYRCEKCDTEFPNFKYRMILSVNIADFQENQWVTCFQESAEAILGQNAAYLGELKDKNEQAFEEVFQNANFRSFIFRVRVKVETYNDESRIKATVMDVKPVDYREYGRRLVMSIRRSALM
RPA (full-length heterotrimer RPA1/RPA2/RPA3) (human), sequence (P15927 whole entry, chain 2 of 3): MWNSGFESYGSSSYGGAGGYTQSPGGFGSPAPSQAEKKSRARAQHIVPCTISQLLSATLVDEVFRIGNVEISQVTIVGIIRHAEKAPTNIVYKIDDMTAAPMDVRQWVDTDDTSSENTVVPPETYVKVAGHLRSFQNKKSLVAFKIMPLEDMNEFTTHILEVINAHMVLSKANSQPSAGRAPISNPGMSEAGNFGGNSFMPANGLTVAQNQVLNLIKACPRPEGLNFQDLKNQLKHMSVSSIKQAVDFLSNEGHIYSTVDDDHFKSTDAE
RPA (full-length heterotrimer RPA1/RPA2/RPA3) (human), sequence (P35244 whole entry, chain 3 of 3): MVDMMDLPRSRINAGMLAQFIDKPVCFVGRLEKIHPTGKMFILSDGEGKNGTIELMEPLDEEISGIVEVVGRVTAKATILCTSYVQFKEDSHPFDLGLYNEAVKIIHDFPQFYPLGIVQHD
In the case of AAAAAAAAAAAAAAAAAAAAAAA [polyA], the Kd was 0.07.

In the case of ATCCCCTTCCCAACCTCACCCAA [Anti (Comp)], the Kd turned out to be 0.07.

In the case of TAGGGGAAGGGTTGGAGTGGGTT [Gq23 (FP)], the Kd was determined as 0.05.
